Measured values published in US20260125472A1 (HEFEI TG IMMUNOPHARMA, published 2026).

Biological target: T1, Trop2 on A-375-Trop2 melanoma cells (UniProt P09758 27-323, limits assumed)
T1 construct: whole, on cells
T1 sequence (looked up): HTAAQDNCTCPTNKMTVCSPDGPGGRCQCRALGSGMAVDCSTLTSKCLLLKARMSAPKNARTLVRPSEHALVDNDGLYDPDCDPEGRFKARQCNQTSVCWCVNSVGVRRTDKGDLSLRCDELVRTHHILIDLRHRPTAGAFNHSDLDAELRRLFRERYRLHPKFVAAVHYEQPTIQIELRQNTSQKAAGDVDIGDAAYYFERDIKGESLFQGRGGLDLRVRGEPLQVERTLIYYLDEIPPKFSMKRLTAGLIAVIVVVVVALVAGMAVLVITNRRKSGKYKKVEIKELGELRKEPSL
Assay: flow cytometry, A-375-Trop2 cells, MFI [panel B]
In short: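 Cells were blocked with goat serum at 4° C for 30 min, then incubated with serially diluted bispecific antibodies or hIgG1LALA control at 4° C for 30 min. Bound antibody was detected with Alexa-647 anti-human IgG (4° C, 30 min, dark) and read by flow cytometry.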

B1: Cross311×Trop2 (bispecific antibody)
scFv: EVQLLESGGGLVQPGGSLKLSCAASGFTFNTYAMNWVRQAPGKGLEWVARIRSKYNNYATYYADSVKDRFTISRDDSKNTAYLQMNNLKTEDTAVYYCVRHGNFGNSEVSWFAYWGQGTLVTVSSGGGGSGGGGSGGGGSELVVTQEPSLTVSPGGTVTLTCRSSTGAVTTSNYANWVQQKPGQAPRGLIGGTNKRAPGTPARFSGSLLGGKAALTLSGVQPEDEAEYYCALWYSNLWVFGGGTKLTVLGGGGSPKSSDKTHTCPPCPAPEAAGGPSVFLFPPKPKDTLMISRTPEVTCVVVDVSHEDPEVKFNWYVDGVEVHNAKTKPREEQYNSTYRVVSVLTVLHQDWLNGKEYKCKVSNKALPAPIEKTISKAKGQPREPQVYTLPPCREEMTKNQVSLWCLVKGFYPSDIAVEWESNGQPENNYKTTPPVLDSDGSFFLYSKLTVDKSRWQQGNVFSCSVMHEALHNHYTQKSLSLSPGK
heavy: QVQLQQSGSELKKPGASVKVSCKASGYTFTNYGMNWVKQAPGQGLKWMGWINTYTGEPTYTDDFKGRFAFSLDTSVSTAYLQISSLKADDTAVYFCARGGFGSSYWYFDVWGQGSLVTVSSASTKGPSVFPLAPSSKSTSGGTAALGCLVKDYFPEPVTVSWNSGALTSGVHTFPAVLQSSGLYSLSSVVTVPSSSLGTQTYICNVNHKPSNTKVDKKVEPKSSDKTHTCPPCPAPEAAGGPSVFLFPPKPKDTLMISRTPEVTCVVVDVSHEDPEVKFNWYVDGVEVHNAKTKPREEQYNSTYRVVSVLTVLHQDWLNGKEYKCKVSNKALPAPIEKTISKAKGQPREPQVCTLPPSREEMTKNQVSLSCAVKGFYPSDIAVEWESNGQPENNYKTTPPVLDSDGSFFLVSKLTVDKSRWQQGNVFSCSVMHEALHNHYTQKSLSLSPGK
light: DIQLTQSPSSLSASVGDRVSITCKASQDVSIAVAWYQQKPGKAPKLLIYSASYRYTGVPDRFSGSGSGTDFTLTISSLQPEDFAVYYCQQHYITPLTFGAGTKVEIKRTVAAPSVFIFPPSDEQLKSGTASVVCLLNNFYPREAKVQWKVDNALQSGNSQESVTEQDSKDSTYSLSSTLTLSKADYEKHKVYACEVTHQGLSSPVTKSFNRGEC
  EC50 (read off the curve): ~1 mg/L
